The first test concerns the target T1, Yfr024 SH3 (LSB3_YEAST), P43603.
T1 chain: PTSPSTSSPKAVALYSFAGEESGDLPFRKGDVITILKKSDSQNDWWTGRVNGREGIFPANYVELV
As to the kind of experiment: SPOT array.
FEYSKYRPLTPSSE [YOR001W 401-414] yielded a normalised SPOT signal, Boehringer light units (BLU); mean over the file's lines of this peptide of 485.
On the same count and under the same terms, the same measure for EYFPREYPKDPVSE [YDR124W 275-288]: 93.1; for ETSLRVLPIAPKIF [YDL231C 393-406]: 399.
Same read-out and setting: the same measure for FASEKGAPFFPNKT [YPR144C 134-147]: 264.
On the same count and under the same terms, the same measure for FANIKREPVHPEIR [YPR101W 28-41]: 74.4.
Consider ETGVRYGPEFPLST [YNL277W 122-135], for which the normalised SPOT signal, Boehringer light units (BLU); mean over the file's lines of this peptide is 7.2.
The molecule FFYRRDIPDVPITT [YDR310C 827-840] returned a normalised SPOT signal, Boehringer light units (BLU); mean over the file's lines of this peptide of 838.
ETTTRETPLPPIPA [YPL207W 797-810]: the normalised SPOT signal, Boehringer light units (BLU); mean over the file's lines of this peptide is 108.
The molecule FEEDKMTPSTPVRS [YJR092W 847-860] came in with a normalised SPOT signal, Boehringer light units (BLU); mean over the file's lines of this peptide of 11100.
On the same count and under the same terms, for EVENKLRPDLPVKN [YFR030W 637-650] the value was 1360; for EWEEKLTPAGPLSP [YDR402C 463-476], 80.9; for ETKKKWQPLPPEPL [YOR042W 368-381], 30.2.
The same measure, in the same setting: the same measure for FENRKHQPFTPKGM [YKL171W 669-682]: 574.
In the case of EVLRKYIPGEPEFL [YDR023W 429-442], the normalised SPOT signal, Boehringer light units (BLU); mean over the file's lines of this peptide was 0.

Another test has as its target T2, Yhr016c SH3 (YSC84_YEAST), P32793.
T2 chain: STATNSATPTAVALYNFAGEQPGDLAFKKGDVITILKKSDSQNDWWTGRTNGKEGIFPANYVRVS
In words: SPOT array.
In turn, FEYSKYRPLTPSSE [YOR001W 401-414] displayed a normalised SPOT signal, Boehringer light units (BLU); mean over the file's lines of this peptide of 288.
Still for that read-out and setting: the same measure for EYFPREYPKDPVSE [YDR124W 275-288]: 22.8; for ETSLRVLPIAPKIF [YDL231C 393-406]: 55.1.
On the same count and under the same terms, for FASEKGAPFFPNKT [YPR144C 134-147] the value was 40.9.
Still for that read-out and setting: the same measure for FANIKREPVHPEIR [YPR101W 28-41]: 116.
Consider ETGVRYGPEFPLST [YNL277W 122-135], for which the normalised SPOT signal, Boehringer light units (BLU); mean over the file's lines of this peptide came to 40.6.
Turning to FFYRRDIPDVPITT [YDR310C 827-840], the normalised SPOT signal, Boehringer light units (BLU); mean over the file's lines of this peptide was 362.
As for ETTTRETPLPPIPA [YPL207W 797-810], the normalised SPOT signal, Boehringer light units (BLU); mean over the file's lines of this peptide was 71.1.
On the same count and under the same terms, the same measure for FEEDKMTPSTPVRS [YJR092W 847-860]: 3920; for EVENKLRPDLPVKN [YFR030W 637-650]: 14.9.
The same measure, in the same setting: for EWEEKLTPAGPLSP [YDR402C 463-476] the value was 32.1; for ETKKKWQPLPPEPL [YOR042W 368-381], 2.5; for FENRKHQPFTPKGM [YKL171W 669-682], 33.1.
EVLRKYIPGEPEFL [YDR023W 429-442] showed a normalised SPOT signal, Boehringer light units (BLU); mean over the file's lines of this peptide of 10.4.

The target of the next test is Sho1 SH3 (SHO1_YEAST), P40073. In words: SPOT array.
Chain of Sho1 SH3 (SHO1_YEAST), P40073 (P40073 295-366): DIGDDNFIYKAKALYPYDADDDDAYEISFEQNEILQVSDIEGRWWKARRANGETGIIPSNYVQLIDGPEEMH
FEYSKYRPLTPSSE [YOR001W 401-414] displayed a normalised SPOT signal, Boehringer light units (BLU); mean over the file's lines of this peptide of 114.
Still for that read-out and setting: the same measure for EYFPREYPKDPVSE [YDR124W 275-288]: 31.2.
Same read-out and setting: for ETSLRVLPIAPKIF [YDL231C 393-406] the value was 2880; for FASEKGAPFFPNKT [YPR144C 134-147], 12.3; for FANIKREPVHPEIR [YPR101W 28-41], 76.
On the same count and under the same terms, for ETGVRYGPEFPLST [YNL277W 122-135] the value was 23.1; for FFYRRDIPDVPITT [YDR310C 827-840], 839.
ETTTRETPLPPIPA [YPL207W 797-810]: the normalised SPOT signal, Boehringer light units (BLU); mean over the file's lines of this peptide amounted to 1020.
The same measure, in the same setting: for FEEDKMTPSTPVRS [YJR092W 847-860] the value was 65; for EVENKLRPDLPVKN [YFR030W 637-650], 39.1; for EWEEKLTPAGPLSP [YDR402C 463-476], 38.2.
The same measure, in the same setting: the same measure for ETKKKWQPLPPEPL [YOR042W 368-381]: 436; for FENRKHQPFTPKGM [YKL171W 669-682]: 126.
Still for that read-out and setting: for EVLRKYIPGEPEFL [YDR023W 429-442] the value was 47.5.

In a further test the target is T3, Rvs167 SH3 (RV167_YEAST), P39743.
T3 chain: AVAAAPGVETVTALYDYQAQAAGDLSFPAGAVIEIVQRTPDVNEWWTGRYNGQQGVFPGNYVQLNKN
As to the kind of experiment: SPOT array.
In turn, FEYSKYRPLTPSSE [YOR001W 401-414] displayed a normalised SPOT signal, Boehringer light units (BLU); mean over the file's lines of this peptide of 436.
For EYFPREYPKDPVSE [YDR124W 275-288], the normalised SPOT signal, Boehringer light units (BLU); mean over the file's lines of this peptide was 104.
The same measure, in the same setting: the same measure for ETSLRVLPIAPKIF [YDL231C 393-406]: 766; for FASEKGAPFFPNKT [YPR144C 134-147]: 585; for FANIKREPVHPEIR [YPR101W 28-41]: 40.
In turn, ETGVRYGPEFPLST [YNL277W 122-135] displayed a normalised SPOT signal, Boehringer light units (BLU); mean over the file's lines of this peptide of 11.9.
The same measure, in the same setting: for FFYRRDIPDVPITT [YDR310C 827-840] the value was 253.
Same read-out and setting: for ETTTRETPLPPIPA [YPL207W 797-810] the value was 167; for FEEDKMTPSTPVRS [YJR092W 847-860], 59.7; for EVENKLRPDLPVKN [YFR030W 637-650], 44.1.
Still for that read-out and setting: the same measure for EWEEKLTPAGPLSP [YDR402C 463-476]: 46.8.
As to ETKKKWQPLPPEPL [YOR042W 368-381], the normalised SPOT signal, Boehringer light units (BLU); mean over the file's lines of this peptide came to 28.5.
FENRKHQPFTPKGM [YKL171W 669-682] showed a normalised SPOT signal, Boehringer light units (BLU); mean over the file's lines of this peptide of 148.
Same read-out and setting: the same measure for EVLRKYIPGEPEFL [YDR023W 429-442]: 6.9.

Another test addresses T4, Myo5 SH3 (MYO5_YEAST), Q04439.
T4 chain: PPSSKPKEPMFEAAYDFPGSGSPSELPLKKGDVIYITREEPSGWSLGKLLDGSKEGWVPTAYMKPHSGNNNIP
As to the kind of experiment: SPOT array.
On to FEYSKYRPLTPSSE [YOR001W 401-414], for which the normalised SPOT signal, Boehringer light units (BLU); mean over the file's lines of this peptide turned out to be 143.
On the same count and under the same terms, for EYFPREYPKDPVSE [YDR124W 275-288] the value was 272.
The same measure, in the same setting: for ETSLRVLPIAPKIF [YDL231C 393-406] the value was 548.
Take FASEKGAPFFPNKT [YPR144C 134-147]: the normalised SPOT signal, Boehringer light units (BLU); mean over the file's lines of this peptide came out at 359.
FANIKREPVHPEIR [YPR101W 28-41] gave a normalised SPOT signal, Boehringer light units (BLU); mean over the file's lines of this peptide of 188.
The same measure, in the same setting: the same measure for ETGVRYGPEFPLST [YNL277W 122-135]: 96.2.
The molecule FFYRRDIPDVPITT [YDR310C 827-840] showed a normalised SPOT signal, Boehringer light units (BLU); mean over the file's lines of this peptide of 138.
Still for that read-out and setting: for ETTTRETPLPPIPA [YPL207W 797-810] the value was 178; for FEEDKMTPSTPVRS [YJR092W 847-860], 248.
Still for that read-out and setting: for EVENKLRPDLPVKN [YFR030W 637-650] the value was 40.7; for EWEEKLTPAGPLSP [YDR402C 463-476], 297.
On the same count and under the same terms, the same measure for ETKKKWQPLPPEPL [YOR042W 368-381]: 256; for FENRKHQPFTPKGM [YKL171W 669-682]: 211; for EVLRKYIPGEPEFL [YDR023W 429-442]: 169.

The next test deals with T5, Boi2 SH3 (BOI2_YEAST), P39969.
T5 chain: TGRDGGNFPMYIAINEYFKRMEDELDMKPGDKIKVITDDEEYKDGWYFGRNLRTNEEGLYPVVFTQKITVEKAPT
As to the kind of experiment: SPOT array.
With FEYSKYRPLTPSSE [YOR001W 401-414], the normalised SPOT signal, Boehringer light units (BLU); mean over the file's lines of this peptide is 111.
Same read-out and setting: for EYFPREYPKDPVSE [YDR124W 275-288] the value was 5.6; for ETSLRVLPIAPKIF [YDL231C 393-406], 47.6; for FASEKGAPFFPNKT [YPR144C 134-147], 269.
FANIKREPVHPEIR [YPR101W 28-41] gave a normalised SPOT signal, Boehringer light units (BLU); mean over the file's lines of this peptide of 21.7.
The same measure, in the same setting: the same measure for ETGVRYGPEFPLST [YNL277W 122-135]: 23.4; for FFYRRDIPDVPITT [YDR310C 827-840]: 33.9.
Still for that read-out and setting: for ETTTRETPLPPIPA [YPL207W 797-810] the value was 43.2; for FEEDKMTPSTPVRS [YJR092W 847-860], 7.9.
EVENKLRPDLPVKN [YFR030W 637-650] gave a normalised SPOT signal, Boehringer light units (BLU); mean over the file's lines of this peptide of 24.9.
Same read-out and setting: the same measure for EWEEKLTPAGPLSP [YDR402C 463-476]: 13.1; for ETKKKWQPLPPEPL [YOR042W 368-381]: 13.2; for FENRKHQPFTPKGM [YKL171W 669-682]: 0.7.
On the same count and under the same terms, for EVLRKYIPGEPEFL [YDR023W 429-442] the value was 0.

The target in the next test is T6, Boi1 SH3 (BOI1_YEAST), P38041.
T6 chain: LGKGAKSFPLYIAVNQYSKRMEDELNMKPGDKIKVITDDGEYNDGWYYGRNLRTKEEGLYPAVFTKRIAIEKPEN
As to the kind of experiment: SPOT array.
In turn, FEYSKYRPLTPSSE [YOR001W 401-414] registered a normalised SPOT signal, Boehringer light units (BLU); mean over the file's lines of this peptide of 73.8.
The same measure, in the same setting: the same measure for EYFPREYPKDPVSE [YDR124W 275-288]: 456; for ETSLRVLPIAPKIF [YDL231C 393-406]: 426.
The same measure, in the same setting: the same measure for FASEKGAPFFPNKT [YPR144C 134-147]: 60.7; for FANIKREPVHPEIR [YPR101W 28-41]: 96.
The molecule ETGVRYGPEFPLST [YNL277W 122-135] returned a normalised SPOT signal, Boehringer light units (BLU); mean over the file's lines of this peptide of 93.9.
Same read-out and setting: for FFYRRDIPDVPITT [YDR310C 827-840] the value was 15400.
Same read-out and setting: for ETTTRETPLPPIPA [YPL207W 797-810] the value was 85.
The same measure, in the same setting: the same measure for FEEDKMTPSTPVRS [YJR092W 847-860]: 12.
With EVENKLRPDLPVKN [YFR030W 637-650], the normalised SPOT signal, Boehringer light units (BLU); mean over the file's lines of this peptide was found to be 31.6.
EWEEKLTPAGPLSP [YDR402C 463-476] displayed a normalised SPOT signal, Boehringer light units (BLU); mean over the file's lines of this peptide of 65.4.
Same read-out and setting: for ETKKKWQPLPPEPL [YOR042W 368-381] the value was 116; for FENRKHQPFTPKGM [YKL171W 669-682], 616; for EVLRKYIPGEPEFL [YDR023W 429-442], 46.4.

The record behind these values is article PMC314469, “Protein Interaction Networks by Proteome Peptide Scanning” (PLoS Biology, 2004).
